In patent US20140322220A1 (Bayer, published 2014):
Numbered stars: 1 amine (or outer) side, 2 acyl side, 3 side chain; on linkers, the order of the positions; unused ones are H or OH. Square brackets hold non-standard residues; d marks the D form. Ends that are not written are not given here. * marks the point of attachment. Biotin = O=C1N[C@H]2[C@H](CS[C@H]2CCCCC(=O)*)N1; Ttds = O=C(CCC(=O)[*:2])NCCCOCCOCCOCCCN[*:1]

T1: RPSFSLVEDTTLEPEG-Ttds-Lys(Biotin) (human)
T1 construct: Synthesized by JPT Peptide Technology
T1 peptide: RPSFSLVEDTTLEPEG[Ttds]K(Biotin)


Columns and labels:
[1] = biological target: T2, rat FGFR2 on RUCA cells (rat, UniProt F1LNW0 41-840); assay: FACS, 5 ug/ml, RUCA cells
T2 construct: whole, on cells
Protocol: (§1) To determine the binding characteristics of the anti-FGFR2 antibodies on mouse, rat and human cancer cell lines, binding was tested by flow cytometry to a panel of cell lines. Adherent cells were washed twice with PBS (without Ca and Mg) and detached by enzyme-free PBS based cell dissociation buffer (Invitrogen). Cells were suspended at approximately 10⁵ cells/well in FACS buffer (PBS without Ca/Mg, Biochrom containing 3% FCS, Biochrom). Cells were centrifuged (250 g, 5 min, 4° C.) and supernatant discarded. Cell were resuspended in dilutions of the antibodies of interest (5 μg/ml in 80 μl if not indicated otherwise) in FACS buffer, and incubated on ice for 1 h. […] After incubation for 1 h on ice cells were again washed with cold FACS buffer, resuspended in 100 μl FACS buffer and analyzed by flow cytometry using a FACS-Array (BD Biosciences). Results are calculated as Geo Mean of the detection by the antibody of interest subtracted by background fluorescence as measured by detection with the secondary antibody alone.

[2] = biological target: T3, mutated human FGFR2 on MFE-296 cells (human, UniProt P21802 22-821); assay: FACS, 5 ug/ml, MFE296 cells
T3 construct: whole, on cells
Protocol: as §1

[3] = biological target: T4, mutated human FGFR2 on AN3-CA cells (human, UniProt P21802 22-821); assay: FACS, 5 ug/ml, AN3CA cells
T4 construct: whole, on cells; also called AN3-CA (DSMZ-ACC 267)
Protocol: as §1

[4] = biological target: T1, RPSFSLVEDTTLEPEG-Ttds-Lys(Biotin); assay: peptide ELISA, IgG titration, anti-mouse IgG (Fc specific) POD detection
[5] = biological target: T5, recombinant human FGFR2 (Met 1-Glu 377) with C-terminal polyhistidine tag (human, UniProt P21802 22-377); assay: protein binding ELISA; against TPP-1403
T5 construct: The range is that of the expressed DNA and begins at Met 1; also called His-tagged FGFR2; recombinant human FGFR2-IIIc molecule
Excerpt: (§2) Two different types of ELISA were used to determine the binding improvement of mutated variants: a) Peptide Binding ELISA: a synthetic peptide comprising the amino acid sequence of the epitope linked C-terminally to a biotinylated lysine […]-Ttds-Lys(Biotin) (peptide sequence derived from SEQ ID NO:63, synthesized by JPT Peptide Technology GmbH, Berlin, Germany), and b) Recombinant Protein Binding ELISA: recombinant human FGFR2 (DNA sequence of human FGFR2 (NP 000132.3) Met 1-Glu 377, fused with a polyhistidine tag at the C-terminus; #10824-1-1081-1, Sin θ Biological Inc., Beijing, China).
(§3) Briefly, in both ELISA formats MTP plates (384 well Maxisorp, Nunc) were coated with 20 μl, anti-human IgG Fc specific (#12136; sigma) at 2.2 μg/ml for 2.5 h at 37° C. in coating buffer (#121125 Candor Bioscience GmbH). […] Anti-FGFR2 variants were immobilized in concentrations of 0.035 μg/ml (peptide based assay) or 0.2 μg/ml (recombinant human FGFR2 protein based assay) in 10% Smart Block in PBST depending on the format and variants to be analyzed by incubation of 20 μl for one hour at 20-22° C. After one washing step using 50 μl PBST, 20 μl quadruplets of the antigen dilution series in 10% SmartBlock in PBST with a maximum concentration of 100 nM were added and incubated for 1 h at 20-22° C. and the washing step was repeated 3 times. For the detection of the biotinylated epitope peptide 20 μl of streptavidine/POD conjugate (# S5512, Sigma) in a 1:1000 dilution in 10% SmartBlock in PBST were applied for one hour at 20-22° C. For the detection of the recombinant FGFR2 protein 20 μl of anti-His/HRP conjugate (#71840, novagen) in a 1:10000 dilution in 10% SmartBlock in PBST were applied for one hour at 20-22° C. After 3 washing steps 20 μl of 10 μM amplex red substrate (# A12222, Invitrogen) in 50 mM Sodium hydrogen phosphate, pH 7.6, were added and the fluorescence signal was detected using a common fluorescence reader, e.g. Tecan M1000. EC50 values were evaluated by fitting the data (Sigmoida) dose-response, variable slope, bottom set to background; GraphPad Prism software).

[6] = biological target: T1, RPSFSLVEDTTLEPEG-Ttds-Lys(Biotin); assay: peptide binding ELISA, antibody captured by anti-human IgG Fc, biotinylated peptide titrated; against TPP-1403
Excerpt: as §2
(§4) Briefly, in both ELISA formats MTP plates (384 well Maxisorp, Nunc) were coated with 20 μl, anti-human IgG Fc specific (#12136; sigma) at 2.2 μg/ml for 2.5 h at 37° C. in coating buffer (#121125 Candor Bioscience GmbH). […] Anti-FGFR2 variants were immobilized in concentrations of 0.035 μg/ml (peptide based assay) or 0.2 μg/ml (recombinant human FGFR2 protein based assay) in 10% Smart Block in PBST depending on the format and variants to be analyzed by incubation of 20 μl for one hour at 20-22° C. […] After 3 washing steps 20 μl of 10 μM amplex red substrate (# A12222, Invitrogen) in 50 mM Sodium hydrogen phosphate, pH 7.6, were added and the fluorescence signal was detected using a common fluorescence reader, e.g. Tecan M1000. […]

[7] = biological target: T1, RPSFSLVEDTTLEPEG-Ttds-Lys(Biotin); assay: peptide binding ELISA, antibody captured by anti-human IgG Fc, biotinylated peptide titrated
Excerpt: as §2, §3

[8] = biological target: T5, recombinant human FGFR2 (Met 1-Glu 377) …; assay: protein binding ELISA, antibody captured by anti-human IgG Fc, FGFR2-His titrated
Excerpt: as §2, §3

[9] = biological target: T1, RPSFSLVEDTTLEPEG-Ttds-Lys(Biotin); assay: peptide binding ELISA; against TPP-1403
Excerpt: as §2, §3

[10] = biological target: T5, recombinant human FGFR2 (Met 1-Glu 377) …; assay: protein binding ELISA; against TPP-1415
Excerpt: as §2, §3
Target sequence in this assay (P21802 22-377 limits assumed): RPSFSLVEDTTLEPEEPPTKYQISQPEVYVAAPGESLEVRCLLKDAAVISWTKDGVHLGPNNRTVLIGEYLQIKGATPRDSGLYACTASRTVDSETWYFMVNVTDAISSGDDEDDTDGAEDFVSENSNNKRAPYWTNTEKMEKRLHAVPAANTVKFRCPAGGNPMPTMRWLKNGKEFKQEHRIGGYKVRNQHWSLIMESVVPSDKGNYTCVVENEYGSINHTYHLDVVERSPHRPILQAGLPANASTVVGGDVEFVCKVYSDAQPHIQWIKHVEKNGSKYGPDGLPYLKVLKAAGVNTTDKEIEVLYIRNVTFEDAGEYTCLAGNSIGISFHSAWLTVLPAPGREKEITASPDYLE

[11] = biological target: T1, RPSFSLVEDTTLEPEG-Ttds-Lys(Biotin); assay: peptide binding ELISA; against TPP-1415
Excerpt: as §2, §4

T3 sequence (P21802 other isoform, or with tags, fused parts or gaps limits assumed, change not shown): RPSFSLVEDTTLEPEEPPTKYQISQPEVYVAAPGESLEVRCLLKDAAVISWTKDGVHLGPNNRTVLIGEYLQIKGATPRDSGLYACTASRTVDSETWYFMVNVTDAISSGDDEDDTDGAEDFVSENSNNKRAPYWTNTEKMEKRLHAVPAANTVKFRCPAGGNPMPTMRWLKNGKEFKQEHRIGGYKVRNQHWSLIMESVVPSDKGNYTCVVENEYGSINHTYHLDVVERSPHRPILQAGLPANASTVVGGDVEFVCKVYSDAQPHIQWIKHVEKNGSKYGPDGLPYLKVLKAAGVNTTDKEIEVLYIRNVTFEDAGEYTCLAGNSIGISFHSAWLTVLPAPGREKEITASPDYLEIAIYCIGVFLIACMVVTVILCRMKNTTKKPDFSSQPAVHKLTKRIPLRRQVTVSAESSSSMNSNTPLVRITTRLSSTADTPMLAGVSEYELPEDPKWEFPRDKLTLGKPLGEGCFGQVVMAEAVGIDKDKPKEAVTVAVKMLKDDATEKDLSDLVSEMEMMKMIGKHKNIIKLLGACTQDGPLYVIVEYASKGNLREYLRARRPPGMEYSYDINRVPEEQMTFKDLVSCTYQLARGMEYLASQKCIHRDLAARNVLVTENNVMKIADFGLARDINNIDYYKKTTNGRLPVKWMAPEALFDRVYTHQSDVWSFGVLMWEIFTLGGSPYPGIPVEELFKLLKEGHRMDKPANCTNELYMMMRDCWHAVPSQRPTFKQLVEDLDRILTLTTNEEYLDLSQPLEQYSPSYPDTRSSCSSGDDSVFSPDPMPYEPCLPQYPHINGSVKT
T4 sequence (P21802 other isoform, or with tags, fused parts or gaps limits assumed, change not shown): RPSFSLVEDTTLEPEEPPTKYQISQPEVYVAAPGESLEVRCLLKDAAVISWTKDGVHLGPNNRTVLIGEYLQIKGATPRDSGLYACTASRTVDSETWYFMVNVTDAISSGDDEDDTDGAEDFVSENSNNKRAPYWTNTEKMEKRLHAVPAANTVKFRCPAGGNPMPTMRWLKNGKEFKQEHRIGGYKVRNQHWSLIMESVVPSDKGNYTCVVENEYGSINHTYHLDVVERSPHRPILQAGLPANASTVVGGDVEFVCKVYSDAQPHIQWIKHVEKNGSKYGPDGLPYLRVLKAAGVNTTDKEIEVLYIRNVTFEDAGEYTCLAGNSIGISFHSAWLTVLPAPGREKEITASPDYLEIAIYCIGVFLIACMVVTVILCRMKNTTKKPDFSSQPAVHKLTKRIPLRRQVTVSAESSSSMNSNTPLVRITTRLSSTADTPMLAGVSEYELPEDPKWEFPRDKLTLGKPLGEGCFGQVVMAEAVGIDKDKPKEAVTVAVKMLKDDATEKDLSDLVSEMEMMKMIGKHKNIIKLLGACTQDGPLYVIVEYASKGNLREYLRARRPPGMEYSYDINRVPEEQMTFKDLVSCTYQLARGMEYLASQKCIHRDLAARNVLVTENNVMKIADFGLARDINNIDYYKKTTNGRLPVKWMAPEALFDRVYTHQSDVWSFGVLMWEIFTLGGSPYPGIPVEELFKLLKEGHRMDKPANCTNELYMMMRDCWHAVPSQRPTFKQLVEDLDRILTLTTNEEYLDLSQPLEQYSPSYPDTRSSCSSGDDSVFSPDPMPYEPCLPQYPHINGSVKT

Geo Mean minus Geo Mean of secondary antibody alone (FACS) [2] | fold EC50 reduction [5] | EC50 [7] | EC50 [8] | fold EC50 reduction [9] | also measured | Binder
100 to 1000 geomean |  |  |  |  | Geo Mean minus Geo Mean of secondary antibody alone (FACS) [1]: 100 to 1000 geomean | M021-H02-hIgG1 (antibody, V domains shown, Human IgG1; also called M021-1-102-hIgG1; M021-1-102) VH: EVQLLESGGGLVQPGGSLRLSCAASGFTFSNYGIHWVRQAPGKGLEWVAVISYDGSNKYYADSVKGRFTISRDNSKNTLYLQMNSLRAEDTAMYYCARDSSSAEDYWGQGTLVTVSS VL: QSVLTQPPSASGTPGQRVTISCSGSSSNTGSNTVNWYQQLPGTAPKLLIYRNNQRPSGVPDRFSGSKSGTSASLAISGLRSEDEADYYCETWDSNTRGVVFGGGTKLTVL
1000 to 10000 geomean |  |  |  |  | Geo Mean minus Geo Mean of secondary antibody alone (FACS) [3]: 100 to 1000 geomean | M054-A05-hIgG1 (antibody, V domains shown, Human IgG1) VH: EVQLLESGGGLVQPGGSLRLSCAASGFTFSNYGMYWVRQAPGKGLEWVAVISYDGTNKYYVDSVKGRFTISRDNSKNTLYLQMNSLRAEDTAVYYCAKDLPKWGGFDSWGQGTLVTVSS VL: not shown
 |  |  |  |  | EC50 [4]: ≤ 1 nM | M048-D01-mIgG2a (antibody, Murine IgG2a format of M048-D01) heavy: EVQLLESGGGLVQPGGSLRLSCAASGFTFSSYAMSWVRQAPGKGLEWVSAISGSGTSTYYADSVKGRFTISRDNSKNTLYLQMNSLRAEDTAVYYCARVRYNWNHGDWFDPWGQGTLVTVSSAKTTAPSVYPLAPVCGDTTGSSVTLGCLVKGYFPEPVTLTWNSGSLSSGVHTFPAVLQSDLYTLSSSVTVTSSTWPSQSITCNVAHPASSTKVDKKIEPRGPTIKPCPPCKCPAPNLLGGPSVFIFPPKIKDVLMISLSPIVTCVVVDVSEDDPDVQISWFVNNVEVHTAQTQTHREDYNSTLRVVSALPIQHQDWMSGKEFKCKVNNKDLPAPIERTISKPKGSVRAPQVYVLPPPEEEMTKKQVTLTCMVTDFMPEDIYVEWTNNGKTELNYKNTEPVLDSDGSYFMYSKLRVEKKNWVERNSYSCSVVHEGLHNHHTTKSFSRTPGK VL: QSVLTQPPSASGTPGQRVTISCSGSSSNIGNNYVSWYQQLPGTAPKLLIYENYNRPAGVPDRFSGSKSGTSASLAISGLRSEDEADYYCSSWDDSLNYWVFGGGTKLTVL
 | 40 fold | 0.004 nM | 0.2 nM |  | fold EC50 reduction [6]: > 2300 fold | TPP-1397 (antibody, human IgG1, lambda, V domains shown, Matured variant of M048-D01) VH: EVQLLESGGGLVQPGGSLRLSCAASGFTFSSYAMSWVRQAPGKGLEWVSAISKSGGSTFYADSVKGRFTISRDNSKNTLYLQMNSLRAEDTAVYYCARVRYIWGEGDWFDPWGQGTLVTVSS VL: AQSVLTQPPSASGTPGQRVTISCSGSSSNIGENYVSWYQQLPGTAPKLLIYENYKRSSGVPDRFSGSKSGTSASLAISGLRSEDEADYYCAAWDDSLNSWVFGGGTKLTVLG
 | 39 fold | 0.006 nM | 0.21 nM | > 1500 fold |  | TPP-1399 (antibody, human IgG1, lambda, V domains shown, Matured variant of M048-D01) VH: EVQLLESGGGLVQPGGSLRLSCAASGFTFSSYAMSWVRQAPGKGLEWVSAISKSGGSTFYADSVKGRFTISRDNSKNTLYLQMNSLRAEDTAVYYCARVRYKWGEGDWFDPWGQGTLVTVSS VL: AQSVLTQPPSASGTPGQRVTISCSGSSSNIGENYVSWYQQLPGTAPKLLIYENYKRPSGVPDRFSGSKSGTSASLAISGLRSEDEADYYCAAWDDSGNSWVFGGGTKLTVLG
 | 39 fold | 0.006 nM | 0.2 nM | > 1700 fold |  | TPP-1401 (antibody, human IgG1, lambda, V domains shown, Matured variant of M048-D01) VH: EVQLLESGGGLVQPGGSLRLSCAASGFTFSSYAMSWVRQAPGKGLEWVSAISKSGGSTFYADSVKGRFTISRDNSKNTLYLQMNSLRAEDTAVYYCARVRYIWNEGDWFDPWGQGTLVTVSS VL: not shown
 | 17 fold | 0.009 nM | 0.48 nM | > 1100 fold |  | TPP-1400 (antibody, human IgG1, lambda, V domains shown, Matured variant of M048-D01) VH: EVQLLESGGGLVQPGGSLRLSCAASGFTFSSYAMSWVRQAPGKGLEWVSAISRSGGSTYYADSVKGRFTISRDNSKNTLYLQMNSLRAEDTAVYYCARVRYIWNEGDWFDPWGQGTLVTVSS VL: not shown
 | 39 fold | 0.005 nM | 0.2 nM | > 2000 fold |  | TPP-1398 (antibody, human IgG1, lambda, V domains shown, Matured variant of M048-D01) VH: EVQLLESGGGLVQPGGSLRLSCAASGFTFSSYAMSWVRQAPGKGLEWVSAISRSGGSTYYADSVKGRFTISRDNSKNTLYLQMNSLRAEDTAVYYCARVRYIWNEGDWFDPWGQGTLVTVSS VL: not shown
 | 37 fold | 0.007 nM | 0.22 nM | > 1500 fold |  | TPP-1402 (antibody, human IgG1, lambda, V domains shown, Matured variant of M048-D01) VH: EVQLLESGGGLVQPGGSLRLSCAASGFTFSSYAMSWVRQAPGKGLEWVSAISKSGGSTFYADSVKGRFTISRDNSKNTLYLQMNSLRAEDTAVYYCARVRYIWNHGDWFDPWGQGTLVTVSS VL: not shown
100 to 1000 geomean |  |  |  |  | Geo Mean minus Geo Mean of secondary antibody alone (FACS) [1]: 100 to 1000 geomean | M054-D03-hIgG1 (antibody, V domains shown, Human IgG1) VH: EVQLLESGGGLVQPGGSLRLSCAASGFTFSNYGMHWVRQAPGKGLEWVAVISYDGSNKYYADSVKGRFTISRDNSKNTLYLQMNSLRAEDTAVYYCAKETNDVPFDYWGQGTLVTVSS VL: not shown
 |  | 2.5 nM | 0.29 nM |  | fold EC50 reduction [10]: 27 fold; fold EC50 reduction [11]: > 4 fold; fold signal [11]: 10 fold | TPP-1408 (antibody, human IgG1, lambda, V domains shown, Matured variant of M047-D08) VH: EVQLLESGGGLVQPGGSLRLSCAASGFTFSHSGMHWVRQAPGKGLEWVAVISYDGSNKYYADSVKGRFTISRDNSKNTLYLQMNSLRAEDTAVYYCAREQPVYDFEYWGQGTLVTVSS VL: not shown
1000 to 10000 geomean |  |  |  |  | Geo Mean minus Geo Mean of secondary antibody alone (FACS) [1]: 100 to 1000 geomean; Geo Mean minus Geo Mean of secondary antibody alone (FACS) [3]: 100 to 1000 geomean | M017-B02-hIgG1 (antibody, V domains shown, Human IgG1) VH: EVQLLESGGGLVQPGGSLRLSCAASGFTFRTSGMHWVRQAPGKGLEWVAVISYDGSNKYYADSVKGRFTISRDNSKNTLYLQMNSLRAEDTAVYYCARESPGYDFEYWGQGTLVTVSS VL: not shown
